The source of these data is patent US20240254227A1 (Alector, published 2024).

Common to all, as to test: SPR (Carterra LSA), antibody immobilised, Fc fusion at 300 or 600 nM
The target in one test is T1, human CD300E-Fc (human).
T1 construct: hIgG1-Fc fusion; the entry is the whole fusion chain
T1 chain: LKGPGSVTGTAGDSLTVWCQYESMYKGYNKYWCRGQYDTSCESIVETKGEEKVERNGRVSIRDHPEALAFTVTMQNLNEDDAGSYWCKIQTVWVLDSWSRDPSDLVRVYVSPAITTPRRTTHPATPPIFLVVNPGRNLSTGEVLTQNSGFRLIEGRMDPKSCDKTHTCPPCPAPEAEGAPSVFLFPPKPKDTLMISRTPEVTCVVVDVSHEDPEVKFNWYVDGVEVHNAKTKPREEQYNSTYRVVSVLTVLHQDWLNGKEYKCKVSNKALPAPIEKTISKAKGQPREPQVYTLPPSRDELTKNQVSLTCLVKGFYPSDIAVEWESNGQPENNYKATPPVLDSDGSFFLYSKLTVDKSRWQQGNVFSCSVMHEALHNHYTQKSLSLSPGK
The method, then:
(§1) Binding of mouse anti-CD300LB IgG1 antibodies of the present disclosure to human and murine CD300 orthologs were evaluated by surface plasmon resonance (SPR) using a Carterra LSA instrument (Carterra, Salt Lake City, UT). […] A HC200M sensor chip (Carterra) was activated using the single channel flow cell with a 7-minute injection of a 1:1:1 mixture of 100 mM MES pH 5.5, 100 mM sulfo-NHS, 400 mM EDC (all reconstituted in MES pH 5.5; 100 μL of each mixed in vial immediately before running assay). After switching to the multi-channel array flow cell, the antibodies were injected over the activated chip in a 96-spot array for 10 minutes. The remaining unconjugated active groups on the chip were then blocked by injecting 1M Ethanolamine pH 8.5 (Carterra) for 7 minutes using the single channel flow cell. After priming with running buffer (HBS-TE, Carterra) with 0.5 mg/ml BSA (Sigma), the immobilized anti-CD300LB antibodies were tested for their ability to bind human and mouse recombinant CD300LB extracellular domains. Human CD300 family members and mouse CD300A were hIgG1-Fc fusions, while mouse CD300LB, mouse CD300C, mouse CD300D, and mouse CD300E were mouse IgG2a-Fc fusions (R&D Systems). Binding was assessed by injecting each analyte over the entire antibody array using the single channel flow cell. CD300 analytes were diluted to 300 nM or 600 nM in running buffer and injected in series without regeneration. Two or three buffer blanks were run between each mouse or human ortholog, respectively. Data were processed and analyzed using NextGenKIT high-throughput kinetics analysis software (Carterra).
(§2) Results of anti-CD300LB antibody binding to human CD300 family members is provided below in Table 7.

The target of a further test is T2, human CD300A-Fc (human).
T2 construct: hIgG1-Fc fusion; the entry is the whole fusion chain
T2 chain: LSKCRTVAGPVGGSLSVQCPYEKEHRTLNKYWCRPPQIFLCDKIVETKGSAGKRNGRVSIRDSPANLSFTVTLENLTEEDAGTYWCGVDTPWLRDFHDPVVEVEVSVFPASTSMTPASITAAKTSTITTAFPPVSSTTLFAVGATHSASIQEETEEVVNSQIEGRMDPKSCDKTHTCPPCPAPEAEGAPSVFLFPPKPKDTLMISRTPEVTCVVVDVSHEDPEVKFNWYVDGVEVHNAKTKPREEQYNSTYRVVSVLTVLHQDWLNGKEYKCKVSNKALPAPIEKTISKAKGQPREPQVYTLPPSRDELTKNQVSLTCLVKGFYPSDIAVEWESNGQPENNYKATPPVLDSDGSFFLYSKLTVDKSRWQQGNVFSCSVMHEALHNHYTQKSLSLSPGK
The method, then:
as §1, §2

For a further test, the target named is T3, human CD300D-Fc (human).
T3 construct: hIgG1-Fc fusion; the entry is the whole fusion chain
T3 chain: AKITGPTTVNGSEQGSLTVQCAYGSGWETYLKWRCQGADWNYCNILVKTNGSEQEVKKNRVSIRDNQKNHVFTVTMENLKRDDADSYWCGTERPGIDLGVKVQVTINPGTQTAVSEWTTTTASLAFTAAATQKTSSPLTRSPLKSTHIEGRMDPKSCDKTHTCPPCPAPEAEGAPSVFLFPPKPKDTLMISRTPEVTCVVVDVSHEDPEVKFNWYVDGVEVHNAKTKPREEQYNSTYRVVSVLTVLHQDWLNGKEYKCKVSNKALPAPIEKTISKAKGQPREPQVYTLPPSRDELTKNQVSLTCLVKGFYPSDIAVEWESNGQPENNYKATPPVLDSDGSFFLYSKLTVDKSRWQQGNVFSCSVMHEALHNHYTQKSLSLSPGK
The method, then:
as §1, §2

In another test the target is T4, human CD300F-Fc (human).
T4 construct: hIgG1-Fc fusion; the entry is the whole fusion chain
T4 chain: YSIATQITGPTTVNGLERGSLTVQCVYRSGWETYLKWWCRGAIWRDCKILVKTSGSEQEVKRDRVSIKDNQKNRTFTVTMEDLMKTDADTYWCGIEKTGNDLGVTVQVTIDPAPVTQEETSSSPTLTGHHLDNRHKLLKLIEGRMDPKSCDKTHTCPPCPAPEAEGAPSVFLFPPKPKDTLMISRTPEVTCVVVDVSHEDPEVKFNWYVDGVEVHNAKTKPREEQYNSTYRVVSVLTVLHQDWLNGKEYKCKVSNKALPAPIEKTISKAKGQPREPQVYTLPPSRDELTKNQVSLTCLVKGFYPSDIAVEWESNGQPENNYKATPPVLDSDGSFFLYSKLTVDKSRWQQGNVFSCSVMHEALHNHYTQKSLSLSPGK
The method, then:
as §1, §2

B1: anti-CD300LB antibody CD-05 (antibody, V domains shown)
VH: QVQLVQSGAEVKKPGASVKVSCKASGYTFSRYYINWVRQAPGQGLEWMGWINPNSGGTNYAQKFQGRVTMTRDTSTSTVYMELSSLRSEDTAVYYCTTDQLRFGKTGPYYGMDVWGQGTTVTVSS
VL: DIQMTQSPSSLSASVGDRVTITCRASQNIGTYLNWYQQKPGKAPKLLIYAASSLQSGVPSRFSGSGSGTDFTLTISSLQPEDFATYYCQQSYSDTLTFGGGTKVEIK
Take B1: the “SPR binding (control subtracted)” value in the test with human CD300E-Fc came out at 0.195; with human CD300A-Fc, 0.24; in the test with human CD300D-Fc, 0.115; with human CD300F-Fc it was 0.045.

B2: anti-CD300LB antibody CD-03 (antibody, V domains shown)
VH: EVQLQQSGPELVKPGASVKISCKASGYTFTDYYINWVRQSHGKSLECIGDINPNNGGTNYNQKFKGKATLTVDRSSNTAYMEFRSLTFDDSALYYCAAEGAYWGQGTLVTVSA
VL: not shown
As for B2, the “SPR binding (control subtracted)” value in the test with human CD300E-Fc is 0.18; with human CD300A-Fc it was 0.095; in the test with human CD300D-Fc, 0.4; with human CD300F-Fc, 0.42.

B3: anti-CD300LB antibody CD-01 (antibody, V domains shown)
VH: RVQLQQSGAELVRPGASVTLSCKASGFTFTDFEMHWVKKTPVHGLEWIGAIDPESGNTAYNQKFRGKATLTADKSSSTAYMELRYLTSEDSAVYYCTPLISGADYWGQGTTLTVSS
VL: DVVMTQSPLSLPVSLGDQASISCRSSQSLVHSDGNTYLYWYLQKPGQSPKLLIYKVSNRFSGVPDRFSGSGSGTDFTFKISRVGAEDLGVYFCSQSTHVPWTFGGGTKLEII
For B3, the “SPR binding (control subtracted)” value with human CD300E-Fc is -0.105; in the test with human CD300A-Fc, 0.175; with human CD300D-Fc, 0.575; with human CD300F-Fc, 0.075.

B4: anti-CD300LB antibody CD-02 (antibody, V domains shown)
VH: QVQLQQPGAELVRPGSSVKLSCQASGYTFTNYWMHWVRQRPIQGLEWIGNIDPSDSETHYNQKFKDRATLTVDKSSSTAYMQLSSLTSEDSAVYYCARSGVYDDEGGDYWGQGTTLTVSS
VL: ENVLTQSPAIMSASPGEKVTMTCSASSSVSYIHWYQQKSSTSPKLWIYDTSKLASGVPGRFSGSGSGNSYSLTISSMETEDVATYYCFQGSGYPLTFGAGTKLELK
For B4, the “SPR binding (control subtracted)” value in the test with human CD300E-Fc stood at 0.62; in the test with human CD300A-Fc it was 0.735; with human CD300D-Fc it was 0.76; in the test with human CD300F-Fc it was 0.87.
